The data set in a line: yeast display, Sf9 membrane polyspecificity reagent, FACS + sequencing; frameworks hold sequencing errors. The gist of the method: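 Genes from sorted yeast were amplified by colony PCR, read by MiSeq 2 × 250 sequencing and filtered on CDR length. These cells carried a synthetic nanobody library in Saccharomyces cerevisiae BJ5465 and were sorted by FACS into low and high (top ~1%) gates on anti-HA and streptavidin fluorescence. Polyreactivity is labelled according to the gate of origin.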
On to “QVQLLESGGGLVQAGGSLRLSCAASGSTFLANAMGWYRQAPGKERDLVAAISSSGGSTYYADSVKWRFTISRDNAKNTVYVQMNSLKPEDTAVYYCAAATASRYRLWGGYYYWGQGTQVTVSS”, for which the “polyreactivity (PSR sort gate)” value is “low polyreactivity”.
The value for “QVQLLESGGGLVQAGGSLRLSCAASGSTFPRYVMGWYRQAPGKERELVAAISSSSGRTFYADSVKGRFTISRDNAKNTVYLQMNSLKPEDTSVYYCAARTSFNVHYWGQGTQVTVSS” was “high polyreactivity”; that for “QVQLLESGGGLVQAGGSLRLSCAASGSTFYSYAMGGYRQAPGKERELVAAISSSSGSTYYADSVKGRFTISRDNANNSVYLQMNSLKPEDTAVYYCNRGRRYSHKYDYWGQGTQVTVSS” was “high polyreactivity”.
Regarding “QVQLLESGGGLVQAGGSLRLSCAASGYTFAYYAMGWYRQAPGKERELVATISWSDGSTYYADSVKGRFTISRDNAKNTVYLQMNSLKPEDTAVYYCAADTPGYYTYYGFGYWGQGTQVTVSS”, the “polyreactivity (PSR sort gate)” value was “low polyreactivity”.
With “QVQLLESGGGLVQAGGSLRLSCAASGYTFRYYTMGWYRQAPGKERELVAAISGSGGSTYYADSVKGRFTISRDTAKNTVYLQMNSLKPEDTAVYYCNRFYSTSRITQYEFDYWGQGTQVTVSS”, the “polyreactivity (PSR sort gate)” value was “high polyreactivity”.
In the case of “QVQLLESGGGLVQAGGSLRLSCAASGYTLRKYAMGWYRQAPGKERELVAAIRTSGGSTYYADSVKGRFTISRDNAKNTVYLQMNSLKPEDTAVYYCAAEWIFSYTWEYDYWGQGTQVTVSS”, the “polyreactivity (PSR sort gate)” value is reported as “low polyreactivity”.
For “QVQLLESGGGLVQAGGSLRLSCAASVSTFLYYTMGWYRQATGKQRELVAAISDDGSTSYADSVKGRFTISRDNAKITVYLQMNSLKPEDTAVYYCAARFYHNRYTFYDFYTLYPYYYWGQGTQVTVSS”, the “polyreactivity (PSR sort gate)” value is on record as “low polyreactivity”.
In the case of “QVQLLESGGGLVQAGGSLRLSCKARGSILGDRMSWYRQAPVKEHELVATIYDGGITYYADSMKGRFTISRDNAKNTVYLQMNRLRPEDTAVYYCGASFEGYRYHVYCGQGTQVTVSS”, the “polyreactivity (PSR sort gate)” value is recorded as “low polyreactivity”.
On to “QVQLLESGGGLVQAGGSLRLSCMASGSILGDRMSWYRQAPGKEHELVATIYDGGITYYADSMKGRFTISRDNAKNTVYLQMNSLRPEDTAVYYCGASFEGYGYHVYCGQGTQVTVSS”, for which the “polyreactivity (PSR sort gate)” value was “low polyreactivity”.
On to “QVQLLESGGGLVQAGGSLRLSFAASGYIFSVNAMGWYRQAPGQERELVATIRTDGTTNYADSVNGRFTISRDNAKNTVYLKMNSLKPEDTAVYYCATDSGWSTYDYWGQGTQVTVSS”, for which the “polyreactivity (PSR sort gate)” value is listed as “high polyreactivity”.
On to “QVQLLESGGGLVQAGGSLRLSFASSGSIFHPYAMGWYRQAPGKERELVAAITSGGSTYYADSVKGLFTISRDNAKNTDLLQMNSLNPEDNAVYYCAKDFDIYYSKYDYWGQGTQVTVSS”, for which the “polyreactivity (PSR sort gate)” value is given as “low polyreactivity”.
In the case of “QVQLLESGGGLVQAGGSLRLSGAASGRIFRWYAMGWYRQAPGKEREFVAAITSSGGSTYYADSVMGRFTISRDNAKNTVYLQMNSLKPDDTAGYYCAALVYLGGSYSRGYDWGQGTQVTVSS”, the “polyreactivity (PSR sort gate)” value is listed as “high polyreactivity”.
As for “QVQLLESGGGLVQAGGSLRLTCAASGNIFISYAMAWYRQAPGKERELVAAISRSGGSTYYADSVKGRFTISRDNAKNTVYLQMNSLKPEDTAVYYCAAYIGPGRYGSWGQGTQVTVSS”, the “polyreactivity (PSR sort gate)” value is “high polyreactivity”.
With “QVQLLESGGGLVQAGGSLRLTCAASVIIFYPYAMVWYRQAPGKERELVAAISIGGGSTYYADSVKGRFTISRDNAKNTVYLQMNSLKPEDTAVYYCAAGTPYGILGYYYWGQGTQVTVSS”, the “polyreactivity (PSR sort gate)” value is “low polyreactivity”.
On to “QVQLLESGGGLVQAGGSLRLTCMASGSILGDRMSWYRQARGKEHELVATIYDGGITYYADSMKGRFTISRDNAKNTVYLQLNSLRPEDTAVYYCGASFEGYRYHVYCGQGTQVTVSS”, for which the “polyreactivity (PSR sort gate)” value is given as “low polyreactivity”.
The same measure for “QVQLLESGGGLVQAGGSRRLSCAASGSTFYGYAMGWYRQAPGKEREFVAAITTSGGSTYYADSVKGRFTISRDNAKNTVYLQMNSLKPEDTAVYYCAADAPSWYDRQYDYWGQGTQVTVSS”: “low polyreactivity”.
Take “QVQLLESGGGLVQAGGTLRLSCAASGSIFFRNAMGWYRQAPGKERELVAAITWNGGSTYYADSVKGRFTISRDNAKNTVYLQMNSLKPDDTAVYYCNKYYYYRDSGYWGQGTQVTVSS”: the “polyreactivity (PSR sort gate)” value is given as “high polyreactivity”.
The value for “QVQLLESGGGLVQAGGTLRLSCAASGSTFRYNAMGWYRQAPGKERELVAAITSGGRTNYADSVKGRFTISRDNAKYTFYLQMNSLKPEDTGVYYCAARRYCRNWHNVYWGQGTQVTVSS” was “high polyreactivity”; that for “QVQLLESGGGLVQAGRSLRLSCSASGRTLVYNAMGWYRQAPGKERELVAGITNGGSTNYADSVKGRFTISRDTAKNTVYLQMNSLKPEDTAVYYCAADSRVYPYYFGDFGYWGQGTQVTVSS” was “low polyreactivity”.
As to “QVQLLESGGGLVQAGVSLRLSCSASGFTFGRYAMGCYRQAHGKERELVAGITWSGGSTSYADSVKGRFTISRDNAKNTVYLQMNSLKPEDTAVYYCATRARYTRVHGRRYAYDYWGQGTQVTVSS”, the “polyreactivity (PSR sort gate)” value is “high polyreactivity”.
For the sequence “QVQLLESGGGLVQARGSLRLICAASGRIFTDNAMGWYIQAPGKERELVATISKRGGRTYYADSVKGRFTISRDNAKNTVYLQMNSLKPEDTAVYYCNARPYWIDGSGLFPYDYWGQGTQVTVSS”, the “polyreactivity (PSR sort gate)” value is “high polyreactivity”.
“QVQLLESGGGLVQEGGSLRLSCAASGSIFEWYVMGWYRQAPGKERELVDTITSDCSSNYADSVKGRFTISRDNAKNTVYLQMNSLKPEDSAVYYCARDWRWDAWTRRGNDDGYWGQGTQVTVSS”: the “polyreactivity (PSR sort gate)” value is reported as “low polyreactivity”.
On to “QVQLLESGGGLVQSGGILRLSCAASGRNFGRYAMGLYRQAPGKERELLATITWRGGITYYADSVKGRFTISRDNAMNTVSLQMNSLKPEDSAVYYCAAGYGRIPYVYWGKGTQVTVSS”, for which the “polyreactivity (PSR sort gate)” value is listed as “high polyreactivity”.
Consider “QVQLLESGGGLVQSGGSLRLSCAASGLTFGSNAMGWYRQATGKEREMVAAISYGGGSTSYADSVKGRFTISRDNAKNTVYLQMNSLKPEDTSVYYCAVVWLCAYSRTNYYYWGQGTQVTVSS”, for which the “polyreactivity (PSR sort gate)” value is “low polyreactivity”.
“QVQLLESGGGLVQVGGSLRLSCAASGTIFIYGFLGWNRQAPGKERELVASINLGGITNYADSEKGRFTISRDNAINTGFLQMISLKPEDTAVYYCAAYVVTCQNYGYWGHGTQVTVSS”: the “polyreactivity (PSR sort gate)” value is reported as “low polyreactivity”.
Turning to “QVQLLESGGGVVQAGGSLRLSCAASGFTFLYNTMGGYRQAPGKVRELVAAISIRGGSTYYADSVKGRFTISRDNAKNTVYLQMNSLKPEDNAVYYCAARTPTPASRSRVYYWGHGTQVTVSS”, the “polyreactivity (PSR sort gate)” value was “high polyreactivity”.
For “QVQLLESGRGLDQAGGSLRLSCAASGGTYKTNPMGMYRQAPGKEMELVAAITGSGTSTYYADSVKGRFTISRDYAKNTVYLQMNSLNPEDTAVYYCAADKLYHPGIGDDYWGQGTQETVSS”, the “polyreactivity (PSR sort gate)” value is “low polyreactivity”.
For “QVQLLESVGGLVQAGGRLRLTCDATGSIFRYYAMGWYRQEPGKERELVATISSGGRTYYADSVKGRFTISRDNAKNTVYLQMNSLKPEDTAVYYCAKVGWSRRYYYWGQGTQVTVSS”, the “polyreactivity (PSR sort gate)” value is listed as “high polyreactivity”.
For “QVQLLESWGGLVQAGGSLRLSCAASGFIFRGYAMGWYRQAPGKDRELVAAISTGGGRTYYADSVKGRFTISRDNAKNTVYLQMNSLKPDDTAVYYCIRRSYTQVLMDYWGQGTQVTVSS”, the “polyreactivity (PSR sort gate)” value is given as “high polyreactivity”.
Turning to “QVQLLETGGGLVQAGGSLRLSCAPSGSTFYYYAMGWYRQAPGKEWELVAAISWSGVSTYYADSVKGRFTISRDNAKTTVYLQMNSLKPEDNAVYYCNADSYTLYGRYDYWGQGTQVTVSS”, the “polyreactivity (PSR sort gate)” value was “low polyreactivity”.
In the case of “QVQLLETGRGLVQAGGSLRLSCAPSGITFRYYAMGWYRQAPGQERELVAAITRSGGSTYYADSVKGRFTLSRYNAKNTVYLQMNSLKPEDTAVYYCAAQPVSRHTGTFYRSNGYDYWGQVTQVTVSS”, the “polyreactivity (PSR sort gate)” value is “high polyreactivity”.
Consider “QVQLLQSGGGLVQAGGSLRLSCAASGFIFLGYAMGWYRQAPGNERELVAAISENSGTTSYADSVKGRFTISRDNAKNTVYLQMNSLKPEDTAVYYCAADSIGNYLLYDYWGQGTQVTVSS”, for which the “polyreactivity (PSR sort gate)” value was “low polyreactivity”.
As for “QVQLPESGGGLLQAGGGLRLSCAASGSITSTGYMGWYRPAPGKEREPVAAIAAGTTTYYADSVKARFTISRDNAKNTVYLQMNCLRPEDTAVYYCAVFTDNRLAFLYWGQGTQVTVSS”, the “polyreactivity (PSR sort gate)” value is recorded as “low polyreactivity”.
Take “QVQLQERAAWCRRAGSLRLSFAASGNISDYYFMGWYRQAPGKEREIFAAIAPGSNTFFADSVKGRFTISRDNATNTVYLQMNSLNPEDTAVYYCARQGTIYSYDIVYPRLDYWGQGTQVTVSS”: the “polyreactivity (PSR sort gate)” value is “low polyreactivity”.
Consider “QVQLQERGGGLVQAGGSLRQSCAASGTISDRAGMGWYRQAPAKNAIVATIDRGTNTNYADSVKGRFTISRDNAKNTVYLQMNSLKPEDTAVYNCAAVGRYNIYLDYWGQGTQVTVSS”, for which the “polyreactivity (PSR sort gate)” value is on record as “low polyreactivity”.
With “QVQLQESDGGLVQAGGSLRLSCAASGSISPQYYMGWYRQEPGKEREFVAISKGTTTYYADSVKGRLTISRVNAKNTVYLQMNSLKPEDTAVYCCAAGRWLQKVHAYWDQGTQVTVSS”, the “polyreactivity (PSR sort gate)” value is on record as “low polyreactivity”.
For the sequence “QVQLQESDGGLVQAGGSLRLSCAASGSISPQYYMGWYRQEPGKEREYVAISKGTTTYYADSVKGRLTISRVNAKNTVYLQMNRLKPEDTAVYCCAAGRWLQKVHAYWDQGTQVTVSS”, the “polyreactivity (PSR sort gate)” value was “low polyreactivity”.
The value for “QVQLQESGAGLEQAGGSLRMSCAASGYSSDIGTMGWYRQAPGKEREFVATIVVGSTTNYADSVKGRFTISRDNAKNTVYLQPESGRYRGVLLRGWLLAVGKFTYWGQGTQETVSS” was “low polyreactivity”; that for “QVQLQESGAGLVQAGGSLRLTCAASGSIFLFYTMGWYRQAPVKEREFVAGITLGTTTYNADSVKGRFTISRDNVKNTVYLQMNSLKPEDTAVYYCAVAVGHYTEFWYWGQGTQVTMSS” was “high polyreactivity”.
On to “QVQLQESGAGPVLAGGSLRLSCAASGTIYVRLDMGWYRQAPGKEREFVATIGSGSSTYYADSVKGSFTISRDNVKNTVYLQMNSLNPEVTAVYYCAVSAAEQSRHYYWAQGTQVTVSS”, for which the “polyreactivity (PSR sort gate)” value is on record as “low polyreactivity”.
For the sequence “QVQLQESGCGLVQAGGCLSCTASGTIFGQGDMGWYRQAPGKERELVATINDGASTYYADSVKGRFTISRDKAKNTVYLQMNSLKPEDTAVYYCAAVIRPRYYQVRPRYDYWGQGTQVTVSS”, the “polyreactivity (PSR sort gate)” value was “low polyreactivity”.

The values above are taken from the nanobody polyreactivity screen of Harvey et al. (2022).
